“Also recorded” adds a separate entry of the source.
Columns and labels:
[1] = Thermostability (storage stability) of luciferase; format: physicochemical, Photinus pyralis; conditions: FIG. 6-8; 10 μg/ml enzyme kept at 0° C., 25° C. and 37° C.
Experimental: Both purified wild type luciferase and CNBLuc03-06 luciferase (SEQ ID NO: 4) were diluted to 10 μg/ml and aliquoted in three micro-centrifuge tubes for these storage stability studies conducted at different temperatures. The tubes containing wild type luciferase and CNBluc03-06 luciferase (SEQ ID NO: 4) were incubated at three different temperatures, 0° C. (FIG. 6), 25° C. (FIG. 7), and 37° C. (FIG. 8) over time. The assay contained 40 mM Tris-Acetate at pH 7.8, 1 mM MgSO4, 0.1 mM EDTA, 500 μM D-Luciferin, 1 mM ATP, 0% ethanol and 33 mM DTT. The light output was measured every 30 minutes after two initial measurements at time 0 and 10 minutes. For each measurement all the samples were diluted to 2 μg/ml so that 10 μl of each sample could be added to give 20 ng of purified enzyme in each reaction.

[2] = Stability of CNBLuc03-06 luciferase activity in the presence of HPV chemicals; format: biochemical, Photinus pyralis
Experimental: (§1) The stability of CNBLuc03-06 luciferase (SEQ ID NO: 4), both in purified form and in cell lysates, in the presence of a range of potential inhibitors was assayed. The basic assay contained 40 mM Tris-Acetate at pH 7.8, 1 mM MgSO4, 0.1 mM EDTA (ethylenediaminetetraacetic acid), 500 μM D-Luciferin and 500 μM ATP. Ethanol, DTT (dithiothreitol) and potential inhibitors were included at the concentrations stated.
This effect was confirmed by repeated experiments. With 20 ng purified CNBLuc03-06 luciferase (SEQ ID NO: 4) and in the presence of 2.5% ethanol, 1 mM DTT and 86 mM chloroform an activation of approximately 50% was measured, compared with the absence of chloroform.
The capacity of a variety HPV chemicals to inhibit or activate both wild type luciferase and CNBLuc03-06 luciferase (SEQ ID NO: 4) activity compared to controls without HPV chemicals was tested. Higher concentrations of chloroform (172 mM), methylene chloride (318 mM) or toluene (2.7 mM) were used. The basic assay contained 20ng of purified CNBLuc03-06, 1 mM DTT and 2.5% ethanol. CNBLuc03-06 luciferase (SEQ ID NO: 4) was exposed to each chemical for less than 5 minutes before measuring the light output.

[3] = Luciferase activity in the presence of anionic detergent SDS; format: biochemical, Photinus pyralis; conditions: FIG. 5; 20 ng purified luciferase, 0% ethanol, 33 mM DTT
Experimental: as §1
(§2) The stability of CNBLuc03-06 luciferase (SEQ ID NO: 4) in the presence of Triton X-100 and SDS was determined using 20 ng of purified luciferase per sample using the basic assay conditions and in the presence of 0% ethanol and 33 mM DTT. The effect of detergents on wild type luciferase was determined previously by W. J. Simpson and J. R. M. Hammond (W. J. Simpson and J. R. M. Hammond, (1991) Journal of Bioluminescence & Chemiluminescence, 6. 97–106, incorporated herein by reference). They reported the anionic detergents inhibit luciferase activity, and cationic detergents and nonionic detergents increase the reaction rate when the concentration of detergent exceeds critical micelle concentration (CMC) value but only up to certain concentrations.
SDS was used for testing the effect of anionic detergents.

[4] = Luciferase activity at different pHs; format: biochemical, Photinus pyralis
Experimental: 20 ng of enzyme was used for each reaction. The pH was maintained at 7.8 by 40 mM Tris-acetate buffer and 33 mM DTT was added to each reaction. Both substrates, MGATP and D-Luciferin were saturated at 1 mM and 500 μM respectively. The values were normalized against the highest RLU (relative light units) at each pH optimum for comparison purpose. CNBLuc03-06 luciferase (SEQ ID NO: 4) has optimum pH of 9, but the high enough activity is retained at lower pHs in which enables us to use this mutant luciferase in case a wide range of pH is required for the assay (between 8–11).

[5] = Luciferase activity in the presence of nonionic detergent Triton X-100; format: biochemical, Photinus pyralis; conditions: FIG. 4; Triton X-100 up to 5%, 20 ng purified luciferase, 0% ethanol, 33 mM DTT
Experimental: as §1, §2

[6] = Quantitative in vitro screening of mutant luciferases with chloroform; format: biochemical, Photinus pyralis; conditions: screening; 68.8 mM chloroform (0.8% vol.), 10% ethanol, 33 mM DTT, cell lysate supernatant
Experimental: Selected colonies from secondary screening were inoculated and grown in 5 ml LB broth containing 100 μg/ml ampicillin at 30° C. overnight. When the OD660 reached approximately 1, bacterial cells were harvested from 1.5 ml of culture by centrifugation for 3 min at 12,000 rpm (Eppendorf centrifuge model 5415D). Harvested cells were resuspended in 1 ml of 40 mM Tris-Acetate buffer, pH 7.8, and sonicated for 10 seconds using a Branson Sonifer 450, Duty cycle-40 and output control-4. The activity of each luciferase sample, prepared using 10 μl of supernatant from a subsequent centrifugation of sonicated bacterial cell culture, was tested in 200 μl total reaction volume by a Luminometer (Perkin Elmer, model Victor II). Each assay contained 40 mM Tris-Acetate, 1 mM MgSO4, 0.1 mM EDTA (ethylenediaminetetraacetic acid), 33 mM DTT (dithiothreitol), 500 μM D-Luciferin, 10% Ethanol and 500 μM ATP at pH 7.8. Some screening assays also contained 68.8 mM chloroform (0.8% vol.).
Different mutant luciferases were compared quantitatively by determining the percentage (%) inhibition of luciferase activity in the presence of chloroform relative to a control without chloroform. The specific activities of chloroform-tolerant mutants were generally lower as compared to wild type. […] The nucleotide sequence of CNBLuc03-02 is SEQ ID No: 1. The polypeptide sequence of the product of SEQ ID No: 1 is SEQ ID No: 2.

[7] = Specific activity of luciferase in the absence of DTT; format: biochemical, Photinus pyralis; conditions: 0 mM DTT, pH 7.8, 1 mM ATP, 500 μM D-Luciferin, three replicates
Experimental: Dithiothreitol (DTT) is an enzyme stabilizing agent used to reduce disulfide bonds (break the bonds) that are not normally formed under physiological conditions. Both purified wild type luciferase and CNBLuc03-06 luciferase (SEQ ID NO: 4) were diluted to 2 μg/ml in 40 mM Tris Acetate buffer at pH 7.8. The assay contained 40 mM Tris-Acetate at pH 7.8, 1 mM MgSO4, 0.1 mM EDTA, 500 μM D-Luciferin, 1 mM ATP, and 0 mM DTT. The light output was measured over time and three replicate measurements were made for each luciferase. The average value of the highest light output reading obtained over time was used to determine specific activity of each enzyme.

B1: CNBLuc03-06: modified Photinus pyralis luciferase: serine to threonine at 239, aspartic acid to tyrosine at 357, alanine to threonine at 532 (protein, listed as Photinus pyralis)
chain: MEDAKNIKKGPAPFYPLEDGTAGEQLHKAMKRYALVPGTIAFTDAHIEVNITYAEYFEMSVRLAEAMKRYGLNTNHRIVVCSENSLQFFMPVLGALFIGVAVAPANDIYNERELLNSMNISQPTVVFVSKKGLQKILNVQKKLPIIQKIIIMDSKTDYQGFQSMYTFVTSHLPPGFNEYDFVPESFDRDKTIALIMNSSGSTGLPKGVALPHRTACVRFSHARDPIFGNQIIPDTAILTVVPFHHGFGMFTTLGYLICGFAVVLMYRFEEELFLRSLQDYKIQSALLVPTLFSFFAKSTLIDKYDLSNLHEIASGGAPLSKEVGEAVAKRFHLPGIRQGYGLTETTSAILITPEGDYKPGAVGKVVPFFEAKVVDLDTGKTLGVNQRGELCVRGPMIMSGYVNNPEATNALIDKDGWLHSGDIAYWDEDEHFFIVDRLKSLIKYKGYQVAPAELESILLQHPNIFDAGVAGLPDDDAGELPAAVVVLEHGKTMTEKEIVDYVASQVTTAKKFRGGVVFVDEVPKGLTGKLDTRKIREILIKAKKGGKSKL
[1]
  activity retained on incubation over time: retained more activity than wild type luciferase
[2]; 20 ng purified enzyme, 2.5% ethanol, 1 mM DTT, 86 mM chloroform
  activation compared with the absence of chloroform: approximately 50%
[2]; FIG. 3, chloroform 172 mM, 20 ng purified enzyme, 1 mM DTT, 2.5% ethanol
  activation compared to controls, chloroform: approximately 60%
[2]; FIG. 3, methylene chloride 318 mM, 20 ng purified enzyme, 1 mM DTT, 2.5% ethanol
  activation compared to controls, methylene chloride: approximately 80%
[2]; FIG. 3, toluene 2.7 mM, 20 ng purified enzyme, 1 mM DTT, 2.5% ethanol
  activation compared to controls, toluene: about 20%
[2]; cell lysates, 5% ethanol, 33 mM DTT, 0.8% chloroform
  activation compared with the absence of chloroform: about 30%
[3]
  effect of SDS on luciferase activity: inhibited luciferase activity significantly; also recorded: retained much more activity at all concentrations of SDS compared to wild type luciferase
[4]; FIG. 9, 20 ng enzyme, 33 mM DTT, 1 mM MgATP, 500 μM D-Luciferin
  optimum pH: 9
[4]; up to pH 11
  activity at elevated pH: high activity at elevated pH (up to pH 11)
[5]
  effect of Triton X-100 on luciferase activity: activated by the nonionic detergent, Triton X-100, up to final concentration of 1.25%; also recorded: maintained activities above the control at all concentrations of Triton X-100
[6]
  inhibition of luciferase activity in the presence of chloroform relative to a control without chloroform: not only resistant to, but also had the capacity to be activated by chloroform
[7]
  specific activity (highest light output): 9.6±0.4×10^9 RLU/mg enzyme/sec
